Sequences and labels used below:
T1: EsCas13d, nuclease-dead (Eubacterium siraeum, UniProt B0MS50, R295A;H300A;R849A;H854A)
T1 sequence: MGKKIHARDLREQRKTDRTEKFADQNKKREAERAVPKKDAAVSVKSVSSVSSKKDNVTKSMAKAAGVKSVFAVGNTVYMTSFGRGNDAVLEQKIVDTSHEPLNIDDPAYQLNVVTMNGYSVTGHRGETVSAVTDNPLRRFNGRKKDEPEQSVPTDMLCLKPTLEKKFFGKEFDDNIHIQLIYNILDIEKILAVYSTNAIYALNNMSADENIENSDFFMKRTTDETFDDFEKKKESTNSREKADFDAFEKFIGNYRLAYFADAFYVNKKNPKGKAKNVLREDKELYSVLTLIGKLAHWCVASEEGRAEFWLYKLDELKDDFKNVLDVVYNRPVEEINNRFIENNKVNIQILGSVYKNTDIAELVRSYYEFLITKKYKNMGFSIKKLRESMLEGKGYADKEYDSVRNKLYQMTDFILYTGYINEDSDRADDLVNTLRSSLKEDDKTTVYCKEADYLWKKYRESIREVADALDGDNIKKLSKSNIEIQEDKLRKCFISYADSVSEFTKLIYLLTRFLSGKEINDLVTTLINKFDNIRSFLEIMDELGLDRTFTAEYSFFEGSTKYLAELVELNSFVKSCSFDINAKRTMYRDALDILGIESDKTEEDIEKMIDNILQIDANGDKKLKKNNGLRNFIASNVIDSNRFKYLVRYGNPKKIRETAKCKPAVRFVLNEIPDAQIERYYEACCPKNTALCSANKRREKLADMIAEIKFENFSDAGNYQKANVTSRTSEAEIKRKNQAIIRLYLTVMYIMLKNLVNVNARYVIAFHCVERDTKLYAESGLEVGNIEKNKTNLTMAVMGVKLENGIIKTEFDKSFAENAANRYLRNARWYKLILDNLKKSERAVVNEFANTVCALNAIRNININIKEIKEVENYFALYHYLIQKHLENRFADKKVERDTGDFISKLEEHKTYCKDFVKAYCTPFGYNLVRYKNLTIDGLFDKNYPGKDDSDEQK

B1: target 1 MT 5'PFS GGU 3'PFS UUC (mixed)
RNA 1: CACCCGUGCAAAAAUGCAGGGGUCUAAAACUGAGCGGAUAACCUCUCUAUGG
RNA 2: GGGAAUGGAUCCACAUCUACGAAUUCGGUCCAUAGAGAGGUUAUCCGCUCAUUCAGAUCGGAAGAGCACACGU
B2: target 1 MT 5'PFS CAA 3'PFS UAG (mixed)
RNA 1: CACCCGUGCAAAAAUGCAGGGGUCUAAAACUGAGCGGAUAACCUCUCUAUGG
RNA 2: GGGAAUGGAUCCACAUCUACGAAUUCCAACCAUAGAGAGGUUAUCCGCUCAUAGAGAUCGGAAGAGCACACGU
B3: target 1 MT 5'PFS GCA 3'PFS ACG (mixed)
RNA 1: CACCCGUGCAAAAAUGCAGGGGUCUAAAACUGAGCGGAUAACCUCUCUAUGG
RNA 2: GGGAAUGGAUCCACAUCUACGAAUUCGCACCAUAGAGAGGUUAUCCGCUCAACGAGAUCGGAAGAGCACACGU
B4: target 1 MT 5'PFS UGG 3'PFS ACU (mixed)
RNA 1: CACCCGUGCAAAAAUGCAGGGGUCUAAAACUGAGCGGAUAACCUCUCUAUGG
RNA 2: GGGAAUGGAUCCACAUCUACGAAUUCUGGCCAUAGAGAGGUUAUCCGCUCAACUAGAUCGGAAGAGCACACGU
B5: target 1 MT 5'PFS GGG 3'PFS UGU (mixed)
RNA 1: CACCCGUGCAAAAAUGCAGGGGUCUAAAACUGAGCGGAUAACCUCUCUAUGG
RNA 2: GGGAAUGGAUCCACAUCUACGAAUUCGGGCCAUAGAGAGGUUAUCCGCUCAUGUAGAUCGGAAGAGCACACGU
B6: target 1 insC 3' of 11,insG 3' of 9 (mixed)
RNA 1: CACCCGUGCAAAAAUGCAGGGGUCUAAAACUGAGCGGAUAACCUCUCUAUGG
RNA 2: GGGAAUGGAUCCACAUCUACGAAUUCGUACCAUAGAGAGGUCUAGUCCGCUCACCGAGAUCGGAAGAGCACACGU
B7: target 1 MT 5'PFS AGU 3'PFS CCG (mixed)
RNA 1: CACCCGUGCAAAAAUGCAGGGGUCUAAAACUGAGCGGAUAACCUCUCUAUGG
RNA 2: GGGAAUGGAUCCACAUCUACGAAUUCAGUCCAUAGAGAGGUUAUCCGCUCACCGAGAUCGGAAGAGCACACGU
B8: target 1 MT 5'PFS GUG 3'PFS ACU (mixed)
RNA 1: CACCCGUGCAAAAAUGCAGGGGUCUAAAACUGAGCGGAUAACCUCUCUAUGG
RNA 2: GGGAAUGGAUCCACAUCUACGAAUUCGUGCCAUAGAGAGGUUAUCCGCUCAACUAGAUCGGAAGAGCACACGU
B9: target 1 MT 5'PFS CAA 3'PFS UAU (mixed)
RNA 1: CACCCGUGCAAAAAUGCAGGGGUCUAAAACUGAGCGGAUAACCUCUCUAUGG
RNA 2: GGGAAUGGAUCCACAUCUACGAAUUCCAACCAUAGAGAGGUUAUCCGCUCAUAUAGAUCGGAAGAGCACACGU
B10: target 1 MT 5'PFS GCA 3'PFS ACU (mixed)
RNA 1: CACCCGUGCAAAAAUGCAGGGGUCUAAAACUGAGCGGAUAACCUCUCUAUGG
RNA 2: GGGAAUGGAUCCACAUCUACGAAUUCGCACCAUAGAGAGGUUAUCCGCUCAACUAGAUCGGAAGAGCACACGU
B11: target 1 MT 5'PFS GCU 3'PFS CUU (mixed)
RNA 1: CACCCGUGCAAAAAUGCAGGGGUCUAAAACUGAGCGGAUAACCUCUCUAUGG
RNA 2: GGGAAUGGAUCCACAUCUACGAAUUCGCUCCAUAGAGAGGUUAUCCGCUCACUUAGAUCGGAAGAGCACACGU
B12: target 1 MT 5'PFS GCU 3'PFS CUG (mixed)
RNA 1: CACCCGUGCAAAAAUGCAGGGGUCUAAAACUGAGCGGAUAACCUCUCUAUGG
RNA 2: GGGAAUGGAUCCACAUCUACGAAUUCGCUCCAUAGAGAGGUUAUCCGCUCACUGAGAUCGGAAGAGCACACGU
B13: target 1 MT 5'PFS AGC 3'PFS AUA (mixed)
RNA 1: CACCCGUGCAAAAAUGCAGGGGUCUAAAACUGAGCGGAUAACCUCUCUAUGG
RNA 2: GGGAAUGGAUCCACAUCUACGAAUUCAGCCCAUAGAGAGGUUAUCCGCUCAAUAAGAUCGGAAGAGCACACGU
B14: target 1 MT 5'PFS GUG 3'PFS ACG (mixed)
RNA 1: CACCCGUGCAAAAAUGCAGGGGUCUAAAACUGAGCGGAUAACCUCUCUAUGG
RNA 2: GGGAAUGGAUCCACAUCUACGAAUUCGUGCCAUAGAGAGGUUAUCCGCUCAACGAGAUCGGAAGAGCACACGU
B15: target 1 MT 5'PFS GUG 3'PFS ACC (mixed)
RNA 1: CACCCGUGCAAAAAUGCAGGGGUCUAAAACUGAGCGGAUAACCUCUCUAUGG
RNA 2: GGGAAUGGAUCCACAUCUACGAAUUCGUGCCAUAGAGAGGUUAUCCGCUCAACCAGAUCGGAAGAGCACACGU
B16: target 1 MT 5'PFS GCU 3'PFS CUC (mixed)
RNA 1: CACCCGUGCAAAAAUGCAGGGGUCUAAAACUGAGCGGAUAACCUCUCUAUGG
RNA 2: GGGAAUGGAUCCACAUCUACGAAUUCGCUCCAUAGAGAGGUUAUCCGCUCACUCAGAUCGGAAGAGCACACGU
B17: target 1 MT 5'PFS CAG 3'PFS AAG (mixed)
RNA 1: CACCCGUGCAAAAAUGCAGGGGUCUAAAACUGAGCGGAUAACCUCUCUAUGG
RNA 2: GGGAAUGGAUCCACAUCUACGAAUUCCAGCCAUAGAGAGGUUAUCCGCUCAAAGAGAUCGGAAGAGCACACGU
B18: target 1 MT 5'PFS GGC 3'PFS CGC (mixed)
RNA 1: CACCCGUGCAAAAAUGCAGGGGUCUAAAACUGAGCGGAUAACCUCUCUAUGG
RNA 2: GGGAAUGGAUCCACAUCUACGAAUUCGGCCCAUAGAGAGGUUAUCCGCUCACGCAGAUCGGAAGAGCACACGU
B19: target 1 MT 5'PFS UUU 3'PFS CGU (mixed)
RNA 1: CACCCGUGCAAAAAUGCAGGGGUCUAAAACUGAGCGGAUAACCUCUCUAUGG
RNA 2: GGGAAUGGAUCCACAUCUACGAAUUCUUUCCAUAGAGAGGUUAUCCGCUCACGUAGAUCGGAAGAGCACACGU
B20: target 1 insC 3' of 20,insC 3' of 20 (mixed)
RNA 1: CACCCGUGCAAAAAUGCAGGGGUCUAAAACUGAGCGGAUAACCUCUCUAUGG
RNA 2: GGGAAUGGAUCCACAUCUACGAAUUCGUACCACCUAGAGAGGUUAUCCGCUCACCGAGAUCGGAAGAGCACACGU
B21: target 1 MT 5'PFS GGC 3'PFS AGA (mixed)
RNA 1: CACCCGUGCAAAAAUGCAGGGGUCUAAAACUGAGCGGAUAACCUCUCUAUGG
RNA 2: GGGAAUGGAUCCACAUCUACGAAUUCGGCCCAUAGAGAGGUUAUCCGCUCAAGAAGAUCGGAAGAGCACACGU
B22: target 1 MT 5'PFS GCA 3'PFS CCG (mixed)
RNA 1: CACCCGUGCAAAAAUGCAGGGGUCUAAAACUGAGCGGAUAACCUCUCUAUGG
RNA 2: GGGAAUGGAUCCACAUCUACGAAUUCGCACCAUAGAGAGGUUAUCCGCUCACCGAGAUCGGAAGAGCACACGU
B23: target 1 MT 5'PFS UGG 3'PFS ACG (mixed)
RNA 1: CACCCGUGCAAAAAUGCAGGGGUCUAAAACUGAGCGGAUAACCUCUCUAUGG
RNA 2: GGGAAUGGAUCCACAUCUACGAAUUCUGGCCAUAGAGAGGUUAUCCGCUCAACGAGAUCGGAAGAGCACACGU
B24: target 1 MT 5'PFS CAA 3'PFS UAA (mixed)
RNA 1: CACCCGUGCAAAAAUGCAGGGGUCUAAAACUGAGCGGAUAACCUCUCUAUGG
RNA 2: GGGAAUGGAUCCACAUCUACGAAUUCCAACCAUAGAGAGGUUAUCCGCUCAUAAAGAUCGGAAGAGCACACGU
B25: target 1 MT 5'PFS CAA 3'PFS UAC (mixed)
RNA 1: CACCCGUGCAAAAAUGCAGGGGUCUAAAACUGAGCGGAUAACCUCUCUAUGG
RNA 2: GGGAAUGGAUCCACAUCUACGAAUUCCAACCAUAGAGAGGUUAUCCGCUCAUACAGAUCGGAAGAGCACACGU
B26: target 1 MT 5'PFS GUG 3'PFS ACA (mixed)
RNA 1: CACCCGUGCAAAAAUGCAGGGGUCUAAAACUGAGCGGAUAACCUCUCUAUGG
RNA 2: GGGAAUGGAUCCACAUCUACGAAUUCGUGCCAUAGAGAGGUUAUCCGCUCAACAAGAUCGGAAGAGCACACGU
B27: target 1 MT 5'PFS GCU 3'PFS CUA (mixed)
RNA 1: CACCCGUGCAAAAAUGCAGGGGUCUAAAACUGAGCGGAUAACCUCUCUAUGG
RNA 2: GGGAAUGGAUCCACAUCUACGAAUUCGCUCCAUAGAGAGGUUAUCCGCUCACUAAGAUCGGAAGAGCACACGU

This data set has as its target T1, EsCas13d, nuclease-dead. Put plainly: crRNA (strand 1, pre-loaded); Mg2+; 40 mM Tris-HCl pH 7.5, 150 mM NaCl, 6 mM MgCl2, 1 mM DTT, 0.1% Tween-20, 0.2 mg/ml BSA; 25 C; 10 min per concentration, then washed. The note with it: tags: His6-TwinStrep-SUMO cleaved; N-terminal SNAP kept (SNAP-Surface 488); label: 3' end held by stalled T7 RNA polymerase.
The term Kd denotes the constant that tells how readily two partners part at equilibrium. A low value points to a tighter complex. As to B1, binding was characterised by a dissociation constant (Kd) of 36 ± 6 nM.

Regarding B2, the affinity, expressed as Kd, was 17 ± 6.5 nM.

The molecule B3 displayed a dissociation constant (Kd) of 19 ± 5.5 nM.

B4 returned a Kd of roughly 120 nM.

B5 showed a Kd of 43 ± 7.5 nM.

Molecule B6 yielded a Kd of 31.8 ± 2 nM.

With B7, the affinity, expressed as Kd, was 24.6 ± 7.6 nM.

The molecule B8 gave a Kd of 11.5 ± 0.75 nM.

For the molecule B9, the Kd was 34.5 ± 15 nM.

The molecule B10 returned a dissociation constant Kd of 18.5 ± 4.5 nM.

For B11, binding was put at a Kd of 26 ± 8 nM.

In turn, B12 registered a Kd of 92 ± 34 nM. This Kd is about 3.5-fold higher than that of the molecule before.

B13 returned an equilibrium dissociation constant (Kd) of 56.5 ± 18.5 nM.

Turning to B14, the Kd was 15.4 ± 1 nM.

Turning to B15, binding was put at a Kd of 12.4 ± 1.1 nM.

For the molecule B16, the affinity, expressed as Kd, was 44 ± 14 nM. This Kd lies about 3.5-fold higher than the previous one.

Regarding B17, the affinity, expressed as Kd, was 28.5 ± 8 nM.

B18 had a Kd of 15.5 ± 4 nM.

B19 gave a Kd of roughly 65 nM.

B20: the Kd worked out at 44.7 ± 3.1 nM.

Molecule B21 displayed a Kd of 22.5 ± 5 nM.

In turn, B22 returned a Kd of 18.5 ± 8 nM.

In turn, B23 had a dissociation constant (Kd) of 54 ± 17.5 nM.

B24 came in with a Kd of 18 ± 9 nM.

As for B25, the Kd turned out to be 7.65 ± 2.65 nM.

In the case of B26, the Kd came out at 24.1 ± 2.35 nM. Against the preceding molecule, the Kd is about 3.2-fold higher.

In the case of B27, the Kd turned out to be 53 ± 22 nM.

Source of the values: paper PMC10786891, “Massively parallel profiling of RNA-targeting CRISPR-Cas13d”.
